Data published in publication PMC5071727, “A Structure‐Guided Switch in the Regioselectivity of a Tryptophan Halogenase” (Chembiochem, 2016).

Legend:
Assay in all cases: steady-state chlorination kinetics
Format in all cases: biochemical, Streptomyces toxytricini
Conditions in all cases: wild type; kinetic assay conditions not given
[1] = substrate: N[C@@H](Cc1c[nH]c2ccccc12)C(=O)O
Source text: (§1) steady-state chlorination kinetics on SttH

[2] = substrate: Nc1ccccc1C(=O)C[C@H](N)C(=O)O
Source text: as §1

[3] = substrate: NC(=O)c1ccccc1N
Source text: as §1

B1: SttH (Streptomyces toxytricini) (protein)
chain: MNTRNPDKVVIVGGGTAGWMTASYLKKAFGERVSVTLVESGTIGTVGVGEATFSDIRHFFEFLDLREEEWMPACNATYKLAVRFQDWQRPGHHFYHPFEQMRSVDGFPLTDWWLQNGPTDRFDRDCFVMASLCDAGRSPRYLNGSLLQQEFDERAEEPAGLTMSEHQGKTQFPYAYHFEAALLAEFLSGYSKDRGVKHVVDEVLEVKLDDRGWISHVVTKEHGDIGGDLFVDCTGFRGVLLNQALGVPFVSYQDTLPNDSAVALQVPLDMEARGIPPYTRATAKEAGWIWTIPLIGRIGTGYVYAKDYCSPEEAERTLREFVGPEAADVEANHIRMRIGRSEQSWKNNCVAIGLSSGFVEPLESTGIFFIHHAIEQLVKHFPAGDWHPQLRAGYNSAVANVMDGVREFLVLHYLGAARNDTRYWKDTKTRAVPDALAERIERWKVQLPDSENVFPYYHGLPPYSYMAILLGTGAIGLRPSPALALADPAAAEKEFTAIRDRARFLVDTLPSQYEYFAAMGQRV
notes: wild type, purified recombinant from E. coli; dimer in crystal
- Km [1]: 0.8 ± 0.1 µM
- kcat [1]: 0.0108 ± 0.000333 s⁻¹
- kcat/Km [1]: 13700 ± 1580 M⁻¹ s⁻¹
- Km [2]: 241 ± 32 µM
- kcat [2]: 0.0085 ± 0.000333 s⁻¹
- kcat/Km [2]: 35 ± 5 M⁻¹ s⁻¹
- Km [3]: 1075 ± 154 µM
- kcat [3]: 0.0202 ± 0.000667 s⁻¹
- kcat/Km [3]: 18.3 ± 2.83 M⁻¹ s⁻¹
